# Laboratory results reported in PMC11334520, “In vitro higher-order oligomeric assembly of the respiratory syncytial virus M2-1 protein with longer RNAs”.
# B1: Poly19A (ssRNA)
# RNA: AAAAAAAAAAAAAAAAAAA
# B2: SH16(+) (ssRNA)
# RNA: AGUUAAUUAAAAAUAG
# B3: Poly16U (ssRNA)
# RNA: UUUUUUUUUUUUUUUU
# B4: Poly16A (ssRNA)
# RNA: AAAAAAAAAAAAAAAA
# B5: SH16(-) (ssRNA)
# RNA: CUAUUUUUAAUUAACU
# B6: Poly21U (ssRNA)
# RNA: UUUUUUUUUUUUUUUUUUUUU
# B7: Poly9A (ssRNA)
# RNA: AAAAAAAAA
# B8: Poly24A (ssRNA)
# RNA: AAAAAAAAAAAAAAAAAAAAAAAA
# B9: Poly14A (ssRNA)
# RNA: AAAAAAAAAAAAAA
# B10: Poly16C (ssRNA)
# RNA: CCCCCCCCCCCCCCCC
# B11: Poly28U (ssRNA)
# RNA: UUUUUUUUUUUUUUUUUUUUUUUUUUUU
# Legend:
# Conditions in all cases: protein: recombinant; tags: N-terminal His6-GFP, cleaved with TEV; chain copies: 4
# M2-1 [1] = molecular target: T1, M2-1 (human respiratory syncytial virus …, UniProt P04545 1-194); assay: EMSA; 0.5 uM RNA; Hill 5.17; EMSA: 20 mM HEPES pH 7.5, 200 mM NaCl, 2 mM TCEP, 5% glycerol, room temperature 1 h, 4% native PAGE, SYBR Gold; SEC: Superdex 200 Increase 10/300, buffer not given
# T1 sequence: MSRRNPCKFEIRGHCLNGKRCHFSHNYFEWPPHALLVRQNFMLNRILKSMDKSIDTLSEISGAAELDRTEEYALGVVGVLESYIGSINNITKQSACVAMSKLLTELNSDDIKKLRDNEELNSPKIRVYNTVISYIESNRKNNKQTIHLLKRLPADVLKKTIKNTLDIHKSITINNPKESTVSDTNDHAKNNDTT
# M2-1 [2] = molecular target: T1, M2-1; assay: SEC; excess RNA; EMSA: 20 mM HEPES pH 7.5, 200 mM NaCl, 2 mM TCEP, 5% glycerol, room temperature 1 h, 4% native PAGE, SYBR Gold; SEC: Superdex 200 Increase 10/300, buffer not given
# M2-1 [3] = molecular target: T1, M2-1; assay: EMSA; 0.5 uM RNA; Hill 0.83; EMSA: 20 mM HEPES pH 7.5, 200 mM NaCl, 2 mM TCEP, 5% glycerol, room temperature 1 h, 4% native PAGE, SYBR Gold; SEC: Superdex 200 Increase 10/300, buffer not given
# M2-1 [4] = molecular target: T1, M2-1; assay: EMSA; 0.5 uM RNA; Hill 8.10; EMSA: 20 mM HEPES pH 7.5, 200 mM NaCl, 2 mM TCEP, 5% glycerol, room temperature 1 h, 4% native PAGE, SYBR Gold; SEC: Superdex 200 Increase 10/300, buffer not given
# M2-1 [5] = molecular target: T1, M2-1; assay: EMSA; 0.5 uM RNA; Hill 0.95; EMSA: 20 mM HEPES pH 7.5, 200 mM NaCl, 2 mM TCEP, 5% glycerol, room temperature 1 h, 4% native PAGE, SYBR Gold; SEC: Superdex 200 Increase 10/300, buffer not given
binder,measurement,setting,value
B1,Kd,M2-1 [1],2720 nM
B2,binding result,M2-1 [2],binds
B3,binding result,M2-1 [2],no binding
B4,binding result,M2-1 [2],binds
B5,binding result,M2-1 [2],no binding
B6,binding result,M2-1 [2],binds
B7,Kd,M2-1 [3],1940 nM
B8,Kd,M2-1 [4],4440 nM
B9,Kd,M2-1 [5],580 nM
B10,binding result,M2-1 [2],no binding
B11,binding result,M2-1 [2],binds
